Values belong to the substance of their own block, whether it stands above or below them.
Tests used:
FLC [1] = target: FLC (UniProt Q9S7Q7); experiment: yeast two-hybrid; details: p>0.05 (open symbol); parent: 1; read off a plot
SOC1 [2] = target: SOC1 (UniProt O64645); experiment: yeast two-hybrid; details: p>0.05 (open symbol); parent: 1; read off a plot
SOC1 [3] = target: SOC1 (UniProt O64645); experiment: two-hybrid; pGADT7 AD and pGBKT7 BD vectors co-transformed into yeast Y187; quantitative β-galactosidase assay with ONPG (Miller units)
…3 (Arabidopsis) = …3 (Arabidopsis) (UniProt O22456); experiment: as above
…3 (Arabidopsis), sequence (O22456 whole entry): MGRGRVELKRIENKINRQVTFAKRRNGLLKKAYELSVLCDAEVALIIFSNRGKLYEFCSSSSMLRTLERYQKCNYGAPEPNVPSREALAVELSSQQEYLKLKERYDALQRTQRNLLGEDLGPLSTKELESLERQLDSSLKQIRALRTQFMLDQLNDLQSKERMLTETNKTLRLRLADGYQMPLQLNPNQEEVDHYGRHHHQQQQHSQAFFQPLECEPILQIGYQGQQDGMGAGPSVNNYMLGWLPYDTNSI

FLC [4] = target: FLC (UniProt Q9S7Q7); experiment: as above
FLC, SEP3 and SOC1 = experiment: as above

FLC, sequence (Q9S7Q7 whole entry): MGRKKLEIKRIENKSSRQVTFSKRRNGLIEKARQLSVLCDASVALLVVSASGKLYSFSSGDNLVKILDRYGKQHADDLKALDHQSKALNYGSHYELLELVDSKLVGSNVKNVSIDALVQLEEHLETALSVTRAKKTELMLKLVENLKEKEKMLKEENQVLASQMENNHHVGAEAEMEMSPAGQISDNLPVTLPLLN
SOC1, sequence (O64645 whole entry): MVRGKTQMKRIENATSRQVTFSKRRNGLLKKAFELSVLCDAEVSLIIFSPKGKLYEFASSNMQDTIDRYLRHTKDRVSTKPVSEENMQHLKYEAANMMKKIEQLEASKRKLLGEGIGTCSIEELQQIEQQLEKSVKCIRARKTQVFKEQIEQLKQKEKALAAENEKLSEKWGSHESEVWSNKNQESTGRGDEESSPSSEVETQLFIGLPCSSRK

ratio to parent (FLC [1]): 1.1
Substance: SHORT … PHASE (from UniProt Q9FVC1) ins220Y-221D

ratio to parent (SOC1 [2]): 0.94
Substance: SHORT … PHASE, Q9FVC1 ins80M

percent decrease of binding against wild-type SVP (SOC1 [3]): 28% | percent decrease of binding against wild-type SVP (…3 (Arabidopsis)): 22%
Substance: SVP C-domain insertion 220–221 YD (from UniProt Q9FVC1 1-240) (natural protein)

percent decrease of binding against wild-type SVP (FLC [4]): 44% | percent decrease of binding against wild-type SVP (SOC1 [3]): 86% | percent increase of interaction strength against wild-type SVP (…3 (Arabidopsis)): 6%
Substance: SVP Del89V (from UniProt Q9FVC1 1-240) (natural protein)

percent increase of binding against wild-type SVP (FLC [4]): 40% | percent increase of binding against wild-type SVP (SOC1 [3]): 40% | percent decrease of binding against wild-type SVP (…3 (Arabidopsis)): 73%
Substance: SVP Q127R (from UniProt Q9FVC1 1-240) (natural protein)

percent decrease of binding against wild-type SVP (FLC [4]): 64% | percent decrease of binding against wild-type SVP (…3 (Arabidopsis)): 64%
Substance: SVP ins80M (from UniProt Q9FVC1 1-240) (natural protein)

percent decrease of binding against wild-type SVP (FLC, SEP3 and SOC1): 84 to 95%
Substance: SVP with the unique C-domain insertion 176–196 deleted (from UniProt Q9FVC1 1-240) (natural protein)
